Reference: patent publication US20240400715A1 (VIBRANT PHARMA, published 2024)
Where a chain is given by its changes, count along the chain named. Blank lines part the entries; values can stand above or below the binder they belong to.

How the values were obtained:
[1] = target: T1, human EGFR on tumor cells (human, UniProt P00533 25-1210); assay: cell-based or functional assay
[2] = target: T1, human EGFR on tumor cells; assay: cell-based or functional assay; remark: listed apart in the source
[3] = target: T2, keyhole limpet haemocyanin (KLH, Sigma, H8283) (keyhole limpet, UniProt Q10583 17-3414; Q10584 20-3421, limits assumed); assay: ELISA, KLH coated at 5 ug/mL, 100 nM antibody, anti-human IgG-HRP
T2 construct: Bought preparation coated on the plate in the polyspecificity ELISA
Description: (§1) (1) Antigen coating: cardiolipin (Sigma, cat. C0563), keyhole limpet haemocyanin (KLH, Sigma, H8283), LPS (Sigma, L6529), ssDNA (Sigma, D8899), dsDNA (Sigma, D4522) and Insulin (abs42019847) were plated at 50 μg/mL, 5 μg/mL, 10 μg/mL, 1 μg/mL, 1 μg/mL, g/mL, and 50 μL per well, and incubated at 4° C. overnight;
(§2) (4) 50 μl anti-human IgG-HRP conjugate (Sigma, AP113P, 1:8000 dilution) was added to each well; the plate was incubated for 1 h at room temperature and washed 6 times with 0.05% PBST;

Insulin (abs42019847) = target: T3, Insulin (abs42019847); assay: ELISA, insulin coated on the plate, 100 nM antibody, anti-human IgG-HRP
T3 construct: Coated on the plate in the polyspecificity ELISA
Description: as §1, §2

[4] = target: T4, human CD3ε/δ (ACRO systems, CDD-H52W1) (human, UniProt P07766 23-126; P04234 22-105); assay: BLI, antibody captured on AHC sensor, 30 C
T4 construct: bought recombinant heterodimer; also called human CD3 epsilon/delta; Human CD3ε/CD3δ

[5] = target: T5, recombinant tumor antigen human EGFR (ACRO systems, EGR-H5222) (human, UniProt P00533 25-645); assay: BLI, antibody captured on AHC sensor, 30 C
T5 construct: bought recombinant protein
Excerpt: (§3) After the chip captures the bispecific antibodies, it was allowed to bind and dissociate with different concentrations of analytes to obtain the KD value of the interaction. The experimental parameters are as follows: Baseline1: 60s, Loading: 240s, Baseline2: 180s, Association: 240s, Dissociation: 600s, Loading Response: 1.9-2.1 (nm), High sensitivity kinetics: 2 Hz. Kinetic constants were derived based on 1:1 Langmuir binding to obtain equilibrium dissociation constants (KD).

[6] = target: T6, human HER2 on tumor cells (human, UniProt P04626 23-1255); assay: cell-based or functional assay
[7] = target: T6, human HER2 on tumor cells; assay: cell-based or functional assay; remark: listed apart in the source
[8] = target: T7, recombinant tumor antigen human HER2 (ERBB2, ACRO systems, HE2-H5212) (human, UniProt P04626 23-652); assay: BLI (Octet RED96e), antibody captured on AHC anti-human Fc sensor, HER2 as analyte, 30 C, 1:1 fit
T7 construct: Bought recombinant protein
Excerpt: as §3

[9] = target: the molecule itself; assay: BLI self-interaction: antibody captured on AHQ anti-human Fc sensor, free sites blocked with human IgG, same antibody in solution
Description: The bispecific antibodies were diluted to 1 μM, and the proteins were coupled to the surface of the AHQ sensor chip in PBS, and the signal value was ˜0.8 nm. […] The experimental parameters are as follows: Baseline1: 60s, Loading: 180s, Loading response: 0.8 nm, Baseline2: 180s, Association: 240s, High sensitivity kinetics: 2 Hz.

B4: EGFR-CD3 bispecific antibody 404 (bispecific antibody, human IgG4 S228P, kappa, F234A L235A)
chain: QVQLQESGGGSVQAGGSLKLSCAASGRGFSRYAMGWFRQAPGQDREFVATISWTNSTDYADSVKGRFAISRDNAKNTAYLQMNSLKPEDTAVYYCAADKWASSTRSIDYDYWGQGIQVTVSSESKYGPPCPPCPAPEAAGGPSVFLFPPKPKDTLMISRTPEVTCVVVDVSQEDPEVQFNWYVDGVEVHNAKTKPREEQFNSTYRVVSVLTVLHQDWLNGKEYKCKVSNKGLPSSIEKTISKAKGQPREPQVYTLPPCQEEMTKNQVSLWCLVKGFYPSDIAVEWESNGQPENNYKTTPPVLDSDGSFFLYSRLTVDKSRWQEGNVFSCSVMHEALHNHYTQKSLSLSL
heavy: EVKLLESGGGLVQPKGSLKLSCAASGFTFNTYAMNWVRQAPGKGLEWVARIRSKYNNYATYYADSVKDRFTISRDDSQSILYLQMNNLKTEDTAMYYCVRHGNFGNSYVSWFAYWGQGTLVTVSSASTKGPSVFPLAPCSRSTSESTAALGCLVKDYFPEPVTVSWNSGALTSGVHTFPAVLQSSGLYSLSSVVTVPSSSLGTKTYTCNVDHKPSNTKVDKRVESKYGPPCPPCPAPEAAGGPSVFLFPPKPKDTLMISRTPEVTCVVVDVSQEDPEVQFNWYVDGVEVHNAKTKPREEQFNSTYRVVSVLTVLHQDWLNGKEYKCKVSNKGLPSSIEKTISKAKGQPREPQVCTLPPSQEEMTKNQVSLSCAVKGFYPSDIAVEWESNGQPENNYKTTPPVLDSDGSFFLVSRLTVDKSRWQEGNVFSCSVMHEALHNRFTQKSLSLSL
light: QAVVTQESALTTSPGETVTLTCRSSTGAVTTSNYANWVQEKPDHLFTGLIGGTNKRAPGVPARFSGSLIGDKAALTITGAQTEDEAIYFCALWYSNLWVFGGGTKVEIKRTVAAPSVFIFPPSDEQLKSGTASVVCLLNNFYPREAKVQWKVDNALQSGNSQESVTEQDSKDSTYSLSSTLTLSKADYEKHKVYACEVTHQGLSSPVTKSFNRGEC
notes: VHH-knob chain assembled from VHH and knob-Fc with hinge
Kd [4]: 2650 pM
koff [4]: 0.000469 s⁻¹
kon [4]: 177000 M⁻¹ s⁻¹
Kd [5]: 2200 pM
koff [5]: 0.00238 s⁻¹
kon [5]: 1.08e+06 M⁻¹ s⁻¹

B5: EGFR-CD3 bispecific antibody 404 (bispecific antibody, human IgG4 S228P, kappa, F234A L235A)
chain: B4 chain
heavy: B4 heavy
light: B4 light
EC50 of tumor cell killing, MDA-MB-468 cells with human PBMC (E:T 10:1, 3 days, CCK8) [1]: 0.0158 pM
EC50 of tumor cell killing, NCI-H1573 cells with human PBMC (E:T 10:1, 3 days, CCK8) [1]: 6.94 pM
EC50 of tumor cell killing, NCI-H1650 cells with human PBMC (E:T 10:1, 3 days, CCK8) [1]: 67.7 pM
EC50 of tumor cell killing, NCI-H2228 cells with human PBMC (E:T 10:1, 3 days, CCK8) [1]: 73.4 pM
EC50 of tumor cell killing, SK-OV-3 cells with human PBMC (E:T 10:1, 3 days, CCK8) [1]: 9.95 pM
EC50 of tumor cell killing, MCF-7 cells with human PBMC (E:T 10:1, 3 days, CCK8) [2]: 84 pM
EC50 of tumor cell killing, N87 cells with human PBMC (E:T 10:1, 3 days, CCK8) [2]: 1470 pM
EC50 of tumor cell killing, NCI-H157 cells with human PBMC (E:T 10:1, 3 days, CCK8) [2]: 17700 pM
EC50 of tumor cell killing, NCI-H441 cells with human PBMC (E:T 10:1, 3 days, CCK8) [2]: 9.08 pM
Absorbance value (450 nm, polyspecificity ELISA) [3]: 1.06
Absorbance value (450 nm, polyspecificity ELISA) (Insulin (abs42019847)): 1.08
BLI-Response (self-interaction signal) [9]: 0.062 nm

More lines, main results first:

Absorbance value (450 nm, polyspecificity ELISA) [3]: 0.96
Absorbance value (450 nm, polyspecificity ELISA) (Insulin (abs42019847)): 1.01
B1: EGFR-CD3 bispecific antibody 401 (bispecific antibody, human IgG4 S228P, kappa, F234A L235A)
heavy: B4 heavy with C354Y, S359C, S371W, A373L, V412Y, R440H, F441Y
chain: B4 chain with Y253C, C258S, W270S, L272A, Y311V, H339R, Y340F
light: B4 light
EC50 of tumor cell killing, MDA-MB-468 cells with human PBMC (E:T 10:1, 3 days, CCK8) [1]: 0.0208 pM
EC50 of tumor cell killing, NCI-H1573 cells with human PBMC (E:T 10:1, 3 days, CCK8) [1]: 5.83 pM
EC50 of tumor cell killing, NCI-H1650 cells with human PBMC (E:T 10:1, 3 days, CCK8) [1]: 98.6 pM
EC50 of tumor cell killing, NCI-H2228 cells with human PBMC (E:T 10:1, 3 days, CCK8) [1]: 114 pM
EC50 of tumor cell killing, SK-OV-3 cells with human PBMC (E:T 10:1, 3 days, CCK8) [1]: 11.3 pM
EC50 of tumor cell killing, MCF-7 cells with human PBMC (E:T 10:1, 3 days, CCK8) [2]: 206 pM
EC50 of tumor cell killing, N87 cells with human PBMC (E:T 10:1, 3 days, CCK8) [2]: 1310 pM
EC50 of tumor cell killing, NCI-H157 cells with human PBMC (E:T 10:1, 3 days, CCK8) [2]: 10000 pM
EC50 of tumor cell killing, NCI-H441 cells with human PBMC (E:T 10:1, 3 days, CCK8) [2]: 5.38 pM

Kd [4]: 2710 pM
koff [4]: 0.000491 s⁻¹
kon [4]: 181000 M⁻¹ s⁻¹
Kd [5]: 2070 pM
koff [5]: 0.00201 s⁻¹
kon [5]: 969000 M⁻¹ s⁻¹
B2: EGFR-CD3 bispecific antibody 401 (bispecific antibody, human IgG4 S228P, kappa, F234A L235A)
heavy: B4 heavy with C354Y, S359C, S371W, A373L, V412Y, R440H, F441Y
chain: B4 chain with Y253C, C258S, W270S, L272A, Y311V, H339R, Y340F
light: B4 light
notes: VHH-hole chain assembled from VHH and hole-Fc with hinge

Absorbance value (450 nm, polyspecificity ELISA) [3]: 1.92
Absorbance value (450 nm, polyspecificity ELISA) (Insulin (abs42019847)): 1.51
Kd [8]: 18000 pM
koff [8]: 0.00413 s⁻¹
kon [8]: 230000 M⁻¹ s⁻¹
B3: HER2-CD3 bispecific antibody 504 (bispecific antibody, human IgG4 S228P, kappa, F234A L235A)
chain: QVQLVQSGGGLVQAGGSLRLSCAASGRTFSSYAMAWFRQAPGKEREFVAAISWSGANIYVADSVKGRFTISRDNAKDTVYLQMNSLKPEDTAVYYCAVKLGFAPVEERQYDYWGQGTQVTVSSESKYGPPCPPCPAPEAAGGPSVFLFPPKPKDTLMISRTPEVTCVVVDVSQEDPEVQFNWYVDGVEVHNAKTKPREEQFNSTYRVVSVLTVLHQDWLNGKEYKCKVSNKGLPSSIEKTISKAKGQPREPQVYTLPPCQEEMTKNQVSLWCLVKGFYPSDIAVEWESNGQPENNYKTTPPVLDSDGSFFLYSRLTVDKSRWQEGNVFSCSVMHEALHNHYTQKSLSLSL
heavy: B4 heavy
light: B4 light
EC50 of tumor cell killing, MDA-MB-468 cells with human PBMC (E:T 10:1, 3 days, CCK8) [6]: 332 pM
EC50 of tumor cell killing, NCI-H1573 cells with human PBMC (E:T 10:1, 3 days, CCK8) [6]: 37.8 pM
EC50 of tumor cell killing, NCI-H1650 cells with human PBMC (E:T 10:1, 3 days, CCK8) [6]: 1620 pM
EC50 of tumor cell killing, NCI-H2228 cells with human PBMC (E:T 10:1, 3 days, CCK8) [6]: 2430 pM
EC50 of tumor cell killing, SK-OV-3 cells with human PBMC (E:T 10:1, 3 days, CCK8) [6]: 10 pM
EC50 of tumor cell killing, MCF-7 cells with human PBMC (E:T 10:1, 3 days, CCK8) [7]: 1220 pM
EC50 of tumor cell killing, MDA-MB-453 cells with human PBMC (E:T 10:1, 3 days, CCK8) [7]: 4060 pM
EC50 of tumor cell killing, N87 cells with human PBMC (E:T 10:1, 3 days, CCK8) [7]: 1290 pM
EC50 of tumor cell killing, NCI-H157 cells with human PBMC (E:T 10:1, 3 days, CCK8) [7]: 10800 pM
EC50 of tumor cell killing, NCI-H441 cells with human PBMC (E:T 10:1, 3 days, CCK8) [7]: 119 pM
